From PMC9348577, “Dimerization of kringle 1 domain from hepatocyte growth factor/scatter factor provides a potent MET receptor agonist” (Life Science Alliance, 2022)

B1: NK1 (natural protein, human, UniProt P14210 28-209, looked up)
chain: YAEGQRKRRNTIHEFKKSAKTTLIKIDPALKIKTKKVNTADQCANRCTRNKGLPFTCKAFVFDKARKQCLWFPFNSMSSGVKKEFGHEFDLYENKDYIRNCIIGKGRSYKGTVSITKSGIKCQPWSSMIPHEHSFLPSSYRGKDLQENYCRNPRGEEGGPWCFTSNPEVRYEVCDIPQCSEV
notes: human NK1, splice variant of HGF/SF with the N-domain and the first kringle domain (K1), residues 28-209; also called recombinant human NK1 protein; wild-type NK1; source: Pichia pastoris, purified as described in Chirgadze et al (1999)
B2: K1K1 (ligand)
chain: AIRNCIIGKGRSYKGTVSITKSGIKCQPWSSMIPHEHSFLPSSYRGKDLQENYCRNPRGEEGGPWCFTSNPEVRYEVCDIPQCSEVECIIGKGRSYKGTVSITKSGIKCQPWSSMIPHEHSFLPSSYRGKDLQENYCRNPRGEEGGPWCFTSNPEVRYEVCDIPQCSEVE
modifications: Intra-kringle disulphides (three per kringle). The initiator Met of the MAIRN construct is absent from the 7OCL entity, so paper numbering = entity number + 1. Layout: (M)AIRN + HGF 128-206 + SEVE + …

How the values were obtained:
MET567 [1] = target: T1, MET567 (human, UniProt P08581 25-567); assay: SPR; Biacore T200; MET567 immobilised at low density (515 RU) by amine coupling on a CM5 chip; 25°C, PBST (PBS + 0.05% Tween 20), 30 ul/min, 300-s injections to equilibrium; apparent KD from the binding isotherm; settings: both partners purified
T1 construct: human MET receptor fragment MET567 comprising the N-terminal SEMA domain and the cysteine-rich/PSI domain; as I recall it spans residues 25-567 of MET; also called MET567 receptor fragment; MET567 fragment; source: CHO Lec 3.2.8.1 cells, purified as described in Gherardi et al (2003)
T1 sequence (P08581 25-567): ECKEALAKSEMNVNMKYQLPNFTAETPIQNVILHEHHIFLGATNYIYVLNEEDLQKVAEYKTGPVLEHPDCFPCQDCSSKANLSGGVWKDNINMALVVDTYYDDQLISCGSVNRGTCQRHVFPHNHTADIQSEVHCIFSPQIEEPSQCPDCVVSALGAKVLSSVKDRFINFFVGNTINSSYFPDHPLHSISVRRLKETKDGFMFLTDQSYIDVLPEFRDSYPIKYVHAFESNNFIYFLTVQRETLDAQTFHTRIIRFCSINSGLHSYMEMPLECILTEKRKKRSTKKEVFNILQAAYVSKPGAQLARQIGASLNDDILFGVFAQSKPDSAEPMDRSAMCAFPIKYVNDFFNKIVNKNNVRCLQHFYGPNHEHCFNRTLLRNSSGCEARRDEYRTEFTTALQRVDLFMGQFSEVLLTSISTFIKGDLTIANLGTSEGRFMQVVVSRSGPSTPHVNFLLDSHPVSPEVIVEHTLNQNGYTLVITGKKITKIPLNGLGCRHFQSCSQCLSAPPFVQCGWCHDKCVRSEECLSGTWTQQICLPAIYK

MET567 [2] = target: T1, MET567; assay: SEC-SAXS; K1K1 in complex with MET567 injected on Superdex 200 PC 3.2/300 Increase on line with SAXS (ESRF BM29); 25 mM Tris (pH 7.4), 150 mM NaCl; settings: both partners purified

Binder | Kd (MET567 [1]) [nM] | stoichiometry N (MET567 [2])
B1 | 200 | 
B2 | 205 | 1
